Experiment [1] has as its target T1, HIF-1α, endogenous (UniProt Q16665 1-826).
T1 construct: also called HIF-1alpha; hypoxia-inducible factor 1 alpha
Briefly: co-immunoprecipitation of endogenous proteins from HEK 293T cell extracts (FIG. 8A). The method, then: To study endogenous WSB1/pVHL binding, cells were treated with or without 10 μM MG 132 (Sigma) for 2 hours. Cells were lysed by sonication in NETN buffer (20 mM Tris-HCl, pH 8.0, 100 mM NaCl, 1 mM EDTA, 0.5% Nonidet P-40) containing 50 mM b-glycerophosphate, 10 mM NaF, and […] each of pepstatin A and aprotinin, freshly supplemented with protease inhibitor cocktail (Roche). Prior to immunoprecipitation, protein A-bound Agarose beads were incubated overnight with pVHL antibody (Cell Signaling, #2738), WSB1 antibody (Abcam, ab68953; Sigma, HPA003293; Proteintech, 1166-1-AP), or HIF-1α antibody (Abcam, ab51608) in PBS with 5% BSA at 4° C. ab68953 was used for most experiments (HPA003293 for IHC). Extracts were added before immunoprecipitation with protein-A agarose at 4° C. for 4 hours. After three washings in binding buffer, co-purified proteins were analyzed by Western blotting.

Experiment [2] concerns the target T2, HA-tagged HIF-1α (UniProt Q16665 1-826).
T2 construct: Plasmid from Addgene; also called exogenous HIF-1α; not shown: HA tag
Briefly: co-immunoprecipitation of exogenous proteins from HEK 293T cell extracts (FIG. 9A).

T2 sequence (Q16665 whole entry): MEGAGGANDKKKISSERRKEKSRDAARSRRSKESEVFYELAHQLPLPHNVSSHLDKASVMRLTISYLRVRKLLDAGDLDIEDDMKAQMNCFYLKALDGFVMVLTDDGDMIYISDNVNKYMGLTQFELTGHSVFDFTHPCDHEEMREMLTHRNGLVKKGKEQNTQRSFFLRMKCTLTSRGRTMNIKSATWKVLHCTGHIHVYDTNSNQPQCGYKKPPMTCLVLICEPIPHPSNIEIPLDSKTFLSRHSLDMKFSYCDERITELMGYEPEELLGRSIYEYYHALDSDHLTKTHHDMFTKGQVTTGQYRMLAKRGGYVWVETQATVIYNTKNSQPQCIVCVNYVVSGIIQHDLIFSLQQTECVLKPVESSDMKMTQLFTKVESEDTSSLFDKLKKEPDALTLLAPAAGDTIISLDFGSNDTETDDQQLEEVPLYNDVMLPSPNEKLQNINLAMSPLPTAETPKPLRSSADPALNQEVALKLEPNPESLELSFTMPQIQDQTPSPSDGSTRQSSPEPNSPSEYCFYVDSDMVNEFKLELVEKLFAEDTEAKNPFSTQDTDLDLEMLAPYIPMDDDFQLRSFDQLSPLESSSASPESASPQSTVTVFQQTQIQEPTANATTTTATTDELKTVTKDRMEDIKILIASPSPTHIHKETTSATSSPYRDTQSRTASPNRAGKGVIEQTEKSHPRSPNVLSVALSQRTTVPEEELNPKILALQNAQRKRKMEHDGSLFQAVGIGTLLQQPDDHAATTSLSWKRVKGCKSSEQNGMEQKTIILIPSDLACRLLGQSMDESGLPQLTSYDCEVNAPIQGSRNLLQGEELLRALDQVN
T1 sequence (Q16665 whole entry): as above

B1: WD repeat and SOCS box-containing protein 1 (WSB1), endogenous (enzyme)
chain: MASFPPRVNEKEIVRLRTIGELLAPAAPFDKKCGRENWTVAFAPDGSYFAWSQGHRTVKLVPWSQCLQNFLLHGTKNVTNSSSLRLPRQNSDGGQKNKPREHIIDCGDIVWSLAFGSSVPEKQSRCVNIEWHRFRFGQDQLLLATGLNNGRIKIWDVYTGKLLLNLVDHTEVVRDLTFAPDGSLILVSASRDKTLRVWDLKDDGNMMKVLRGHQNWVYSCAFSPDSSMLCSVGASKAVFLWNMDKYTMIRKLEGHHHDVVACDFSPDGALLATASYDTRVYIWDPHNGDILMEFGHLFPPPTPIFAGGANDRWVRSVSFSHDGLHVASLADDKMVRFWRIDEDYPVQVAPLSNGLCCAFSTDGSVLAAGTHDGSVYFWATPRQVPSLQHLCRMSIRRVMPTQEVQELPIPSKLLEFLSYRI
notes: also called WBS1
B1: the binding result in experiment [1] is “no binding”.

B2: Myc-tagged WSB1 (WT) (enzyme)
chain: B1 chain
notes: Plasmid obtained from Dr. Cheol Yong Choi; also called Myc-WSB1; WSB1-Myc; not shown: Myc tag
On to B2, for which, in experiment [2], the binding result is “no binding”.

The values above are taken from patent US20160326532A1 (MAYO FOUNDATION FOR MEDICAL EDUCATION AND RESEARCH, published 2016).
